The source of these data is patent US20180016614.

Series [1] has as its system N-terminally 6-His-tagged T7 RNA polymerase (wild type) expressed by C321.ΔA.759.T7.
Series [2] relates to His-tagged double mutant T7 RNA polymerase K183G, K190L expressed by C321.ΔA.759.T7.D.

Regarding Outer membrane protease VII (OmpT), in series [1], the “proteolytic cleavage of T7RNAP during lysate preparation (α-His western blot)” value was “the T7RNAP produced by the strain is cleaved near the N-terminus to yield a ˜21 kDa fragment” and the “proteolytic cleavage of T7RNAP in lysate of the ompT knockout strain (α-His western blot)” value is on record as “a Western blot revealed that in the absence of OmpT the T7RNAP is no longer cleaved”. For the same substance, the “proteolytic cleavage of double mutant T7RNAP in lysate (α-His western blot)” value in series [2] is “the double mutant T7RNAP expressed by C321.ΔA.759.T7.D is not cleaved despite the presence of active OmpT in the cellular lysate”.
